We go through 2 molecules from patent publication US20220242906A1.

By Kd is commonly meant the constant that tells how readily two partners part at equilibrium. A lower Kd goes with higher affinity.

This assay has as its target elongation initiation factor 4E (eIF4E), P06730. Put plainly: SPR (Biacore T100), eIF4E immobilised on CM5 chip, peptide as analyte. The note with it: remark: other sources report otherwise. For orientation: In SPR one partner is held on a chip, and binding of the other changes the refractive index at the surface.

elongation initiation factor 4E (eIF4E), P06730, sequence (P06730 2-217 limits assumed): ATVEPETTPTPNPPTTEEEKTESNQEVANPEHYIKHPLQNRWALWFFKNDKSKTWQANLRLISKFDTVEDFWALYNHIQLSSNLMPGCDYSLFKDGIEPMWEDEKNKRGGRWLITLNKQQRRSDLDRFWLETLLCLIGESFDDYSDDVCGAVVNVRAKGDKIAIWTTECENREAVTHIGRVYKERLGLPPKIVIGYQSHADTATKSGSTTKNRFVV

B1: EE-2C (peptide)
peptide: ACEMAFFQDCG
HELM: PEPTIDE1{A.C.E.M.A.F.F.Q.D.C.G.[am]}$PEPTIDE1,PEPTIDE1,2:R3-10:R3$$$V2.0
SMILES: CSCC[C@@H]1NC(=O)[C@H](CCC(=O)O)NC(=O)[C@@H](NC(=O)[C@H](C)N)CSSC[C@@H](C(=O)NCC(N)=O)NC(=O)[C@H](CC(=O)O)NC(=O)[C@H](CCC(N)=O)NC(=O)[C@H](Cc2ccccc2)NC(=O)[C@H](Cc2ccccc2)NC(=O)[C@H](C)NC1=O
With B1, the Kd stood at 32 µM.

B2: EE-2A (peptide)
peptide: ACAMGFFQDCG
HELM: PEPTIDE1{A.C.A.M.G.F.F.Q.D.C.G.[am]}$PEPTIDE1,PEPTIDE1,2:R3-10:R3$$$V2.0
SMILES: CSCC[C@@H]1NC(=O)[C@H](C)NC(=O)[C@@H](NC(=O)[C@H](C)N)CSSC[C@@H](C(=O)NCC(N)=O)NC(=O)[C@H](CC(=O)O)NC(=O)[C@H](CCC(N)=O)NC(=O)[C@H](Cc2ccccc2)NC(=O)[C@H](Cc2ccccc2)NC(=O)CNC1=O
Molecule B2 had an equilibrium dissociation constant (Kd) of 11 µM.
